For experiment [1], the target named is T1, CCL8_HUMAN (human, UniProt P80075 24-99).
T1 sequence (looked up): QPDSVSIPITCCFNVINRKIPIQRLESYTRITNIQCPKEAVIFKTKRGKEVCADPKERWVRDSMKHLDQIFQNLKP
The experiment is described as follows: BLI. On the technique in general: Biolayer interferometry detects binding as a change in optical thickness at a sensor tip.

Experiment [2] deals with T2, CXCL8_HUMAN (human, UniProt P10145 28-99).
T2 sequence: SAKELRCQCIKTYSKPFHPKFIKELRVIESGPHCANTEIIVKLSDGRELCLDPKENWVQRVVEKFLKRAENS
The experiment is described as follows: BLI, evasin immobilised.

A further experiment deals with CCL2_HUMAN (human, UniProt P13500 24-99). The experiment is described as follows: BLI, evasin immobilised.
The next experiment addresses T3, CXCL1_HUMAN (human, UniProt P09341 35-107).
T3 sequence: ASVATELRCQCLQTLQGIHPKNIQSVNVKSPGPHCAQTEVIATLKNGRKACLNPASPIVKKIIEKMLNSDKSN
The experiment is described as follows: BLI, evasin immobilised.

The next experiment deals with T4, CCL5_HUMAN (human, UniProt P13501 24-91).
T4 sequence: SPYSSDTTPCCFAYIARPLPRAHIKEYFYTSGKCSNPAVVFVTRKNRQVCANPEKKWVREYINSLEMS
The experiment is described as follows: BLI, evasin immobilised.

The target in experiment [3] is T1, CCL8_HUMAN. The experiment is described as follows: BLI, evasin immobilised.
The target of experiment [4] is T5, CXCL10_HUMAN (human, UniProt P02778 22-98).
T5 sequence: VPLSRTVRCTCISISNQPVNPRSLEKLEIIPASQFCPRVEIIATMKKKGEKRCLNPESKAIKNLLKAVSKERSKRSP
The experiment is described as follows: BLI, evasin immobilised.

The next experiment has as its target T6, CXCL7_HUMAN (human, UniProt P02775 59-128).
T6 sequence: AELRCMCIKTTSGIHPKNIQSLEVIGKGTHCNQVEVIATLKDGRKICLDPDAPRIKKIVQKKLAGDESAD
The experiment is described as follows: yeast surface display FACS re-test.

For experiment [5], the target named is T5, CXCL10_HUMAN. The experiment is described as follows: yeast surface display FACS re-test.
For a further experiment, the target named is T7, CXCL13_HUMAN (human, UniProt O43927 23-109).
T7 sequence: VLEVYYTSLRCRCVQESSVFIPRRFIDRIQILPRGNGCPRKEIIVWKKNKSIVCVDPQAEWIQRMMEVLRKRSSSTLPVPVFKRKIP
The experiment is described as follows: BLI.

For another experiment, the target named is T8, CXCL9_HUMAN (human, UniProt Q07325 23-125).
T8 sequence: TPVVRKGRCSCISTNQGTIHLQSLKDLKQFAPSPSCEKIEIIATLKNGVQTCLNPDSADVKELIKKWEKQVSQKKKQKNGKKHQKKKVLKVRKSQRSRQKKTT
The experiment is described as follows: BLI.

Another experiment has as its target T9, CXCL14_HUMAN (human, UniProt O95715 35-111).
T9 sequence: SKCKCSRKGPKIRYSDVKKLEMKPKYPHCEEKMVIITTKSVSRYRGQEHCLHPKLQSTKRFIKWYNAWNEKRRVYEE
The experiment is described as follows: BLI.

Another experiment has as its target CXCL12_HUMAN (human, UniProt P48061 22-89). The experiment is described as follows: BLI.
A further experiment concerns the target T10, mouse CXCL2 (mouse, UniProt P10889 28-100).
T10 sequence: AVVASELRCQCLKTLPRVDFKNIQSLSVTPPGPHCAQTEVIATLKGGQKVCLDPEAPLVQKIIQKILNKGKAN
The experiment is described as follows: cell-based or functional assay.

The target in a further experiment is T11, mouse CXCL10 (mouse, UniProt P17515 22-98).
T11 sequence: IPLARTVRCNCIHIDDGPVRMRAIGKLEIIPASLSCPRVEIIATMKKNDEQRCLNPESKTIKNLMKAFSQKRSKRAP
The experiment is described as follows: cell-based or functional assay.

Another experiment deals with T12, mouse CXCL1 (mouse, UniProt P12850 25-96).
T12 sequence: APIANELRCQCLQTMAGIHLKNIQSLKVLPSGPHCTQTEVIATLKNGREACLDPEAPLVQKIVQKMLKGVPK
The experiment is described as follows: cell-based or functional assay.

Experiment [6] addresses T2, CXCL8_HUMAN. The experiment is described as follows: BLI [Cont.].
The target in experiment [7] is T1, CCL8_HUMAN. The experiment is described as follows: cell-based or functional assay.

CCL2_HUMAN, sequence (P13500 24-99 limits assumed): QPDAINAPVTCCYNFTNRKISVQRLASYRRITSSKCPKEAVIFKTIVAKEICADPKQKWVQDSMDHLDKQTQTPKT
CXCL12_HUMAN, sequence (P48061 22-89 limits assumed): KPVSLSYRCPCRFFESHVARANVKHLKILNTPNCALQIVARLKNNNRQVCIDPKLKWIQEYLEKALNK

B1: Evasin-1 peptide variant K92E encoded by EZ406190.1 (other)
chain: EDDEDYGDLGGCPFLVAENKTGYPTIVACKQDCNGTTETAPNGTRCFSIGDEGLRRMTANLPYDCPLGQCSNGDCIPKETYEVCYRRNWRDEKN
notes: also called Evasin-1 (EZ406190.1)
As for B1, the binding result in the experiment with CCL8_HUMAN [1] is listed as “no binding (tested: 300 nM)”.

B2: P1820 (P1142:G4S:P1156:G4S:P467) (designed binder)
chain: KPQILQRTDHSTDSDWDPQMCPETCNPSKNISCSSECLCVTLGGGDETGTCFNMSGVDWLGHAQASDGHNDGGGGGSADDDNELFTVQYCGMNCTKDEGGTWTGCTGKKEGCKCYHESGKNYGLCLSTEYTDFSQYGNPSDSEIEAAKPKRSDTLSHGGGGSAEKSLDSDSSGEDYELWTQGCPFLVAENRTGFGTTVSCQHNCNGAIEKVPEGEPCYTIGEDGLGRMKLNLPYNCSLGECSGGVCVPNGRSDVCFKRTWEENNKAMA
Broadly, the Kd is a measure of binding affinity in units of concentration. Low readings indicate higher affinity, high ones lower affinity. In the case of B2, the dissociation constant (Kd) was 1.11 nM in the experiment with CXCL8_HUMAN [2]; 2.86 nM with CCL2_HUMAN; 1.12 nM with CXCL1_HUMAN; 0.41 nM in the experiment with CCL5_HUMAN; 18.2 nM with CCL8_HUMAN [3]; 1.01 nM in the experiment with CXCL10_HUMAN [4].

B3: P1821 (P1142:G4S:P1156:G4S:P991) (designed binder)
chain: KPQILQRTDHSTDSDWDPQMCPETCNPSKNISCSSECLCVTLGGGDETGTCFNMSGVDWLGHAQASDGHNDGGGGGSADDDNELFTVQYCGMNCTKDEGGTWTGCTGKKEGCKCYHESGKNYGLCLSTEYTDFSQYGNPSDSEIEAAKPKRSDTLSHGGGGSENGEGTTQPDYDNSTDYYNYEDFKCTCPAPHLNNTNGTVMKPIGCYYTCNVTRCTAPDTYPCYNLTEHQAKNLTTSPTTLCAVGNCDHGICVPNGTKELCFKAPNLEE
On to B3, for which the dissociation constant (Kd) was found to be 1.55 nM in the experiment with CXCL8_HUMAN [2]; 11.8 nM with CCL2_HUMAN; 1.86 nM with CXCL1_HUMAN; 0.001 nM with CCL5_HUMAN; 14.1 nM with CCL8_HUMAN [3]; 1.44 nM with CXCL10_HUMAN [4].

B4: P1142_AMBCA (other)
chain: KPQILQRTDHSTDSDWDPQMCPETCNPSKNISCSSECLCVTLGGGDETGTCFNMSGVDWLGHAQASDGHNDG
As for B4, the “% cells over threshold fluorescence” value with CXCL7_HUMAN came to 71%; with CXCL10_HUMAN [5], 80%. The binding result with CXCL13_HUMAN, with CXCL9_HUMAN, with CXCL14_HUMAN, with CXCL12_HUMAN and with CXCL8_HUMAN [6] was “no binding (tested: 300 nM)” each time. The “IC50, mouse bone marrow granulocyte cell migration” value with mouse CXCL2 was 0.66 nM; with mouse CXCL1 it was 2.15 nM. Moreover, in the experiment with mouse CXCL10, the “IC50, activated mouse T cell migration” value turned out to be 3.37 nM.

B5: P672:EVA1 (P672_RHIPU (1-44): EVA1_RHISA (29-94)) (designed binder)
chain: VCEVSEQEGVGEDNATEDEDYEDFFKPVTCYFANSTVGPLRPPNCKQDCNGTTETAPNGTRCFSIGDEGLRRMTANLPYDCPLGQCSNGDCIPKETYEVCYRRNWRDEKN
B5: the “IC50, CCL8 induced THP-1 monocyte cell migration” value with CCL8_HUMAN [7] was determined as 48 nM. Moreover, the affinity with CCL8_HUMAN [1], expressed as Kd, was 223 nM.

B6: P1126_AMBCA (other)
chain: KPQILQRTDKSTDSEWDPQTCPETCIPSKNITCSDGCVCVKLGEEEEGTCFNMTGVDWLGSPSDD
B6: the “% cells over threshold fluorescence” value with CXCL7_HUMAN was determined as 74%; in the experiment with CXCL10_HUMAN [5], 66%. Moreover, the binding result in the experiment with CXCL13_HUMAN, with CXCL14_HUMAN, with CXCL12_HUMAN and with CXCL8_HUMAN [6] was “no binding (tested: 300 nM)” each time.

The values are drawn from patent US20240034757A1 (OXFORD UNIVERSITY INNOVATION, published 2024).
